Measured values reported in the RNAGym collection of RNA variant scans (doi:10.1073/pnas.2313332121).

B1: TPR t1 (parent)
chain: GACCAAUCUGCCCUCAGAGCUCGAGAACAUCUUCGGAUGCAGAGGAGGCAGGCUUCGGUGGCGCGAUAGCGCCAACGUCCUCAACCUCCAAUGCAUCCCACCACAUGAUGAUGCCUGAAGAGCCUUGGUUUUUUG

Variants of: B1
Assay: polymerase ribozyme fitness, log enrichment relative to wild type (log ratio); higher = more active; in vitro selection for triplet polymerase activity
In short: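 Fitness is a logarithmic measure of how a genotype enriched relative to the wild type, with replicate averages weighted by inverse variance. The logarithm uses base 2, and enrichment came from Illumina sequencing of input and output libraries. Those libraries were PCR-built, transcribed mutants of each subunit of a heterodimeric triplet polymerase ribozyme, passed through one triplicate in vitro selection round that included frozen incubation at −7 °C, gel excision of extended constructs and streptavidin-bead capture. Genotypes were kept only if they had ≥10 input reads and ≥1 read per output.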

| Variant | polymerase ribozyme fitness (log ratio) |
| --- | --- |
| C8U U32A G60C C97A C99A G122U | -5.09 |
| C8G G113U | -1.24 |
| U9A G48C C62A G77A C88U U112A | -3.81 |
| C8U G45A | 0.126 |
| C8U G93A G110U G127C | -2.37 |
| U9A G35U C72U G77A C124G U126A | -5.65 |
| C8U G36U C56U C82A C89G | -2.15 |
| U9A A103G | -3.9 |
| C8G G71A C82U C101A | -1.2 |
| C8U A26G C49U G57C U112A | -0.963 |
| U9C A41C C53G | -0.677 |
| U9G A27U | -3.6 |
| C8U C15A G69A C73A C102U C123A | -5.63 |
| U9G C11A C70A U87A | -2.04 |
| U9A G45A | -0.107 |
| C8G U14G A43C G47U C82G U133A | -3.36 |
| C8U C12G G69C | -1.06 |
| U9A U14G C73G G117C | -1.75 |
| U9A U32A A37U A46C C56A A111G | -4.29 |
| U9C G58A A100U | -0.581 |
| U9C C73A C85G | -0.637 |

| Variant | polymerase ribozyme fitness (log ratio) |
| --- | --- |
| C8U G61A C70U U87G C89G | -5.05 |
| U9C C11U C101A | -0.843 |
| C8U C56U C70A | -4.3 |
| U9C A68G | -2.42 |
| C8U C76G A90C C101U | -1.52 |
| C8G G69C G113A | -1.36 |
| U9C C49A A91C C104U | -1.34 |
| U9A C11A G42U C64U | -1.3 |
| U9A C20U A43U A50C U87A | -1.81 |
| U9G C34U A103U | -4.66 |
| U9G A50C | -0.315 |
| U9A G10C C73U C102G C114G C115G | -6.5 |
| U9A A24G G42A G52C C72A | -3.17 |
| C8U G51U | -2.45 |
| U9C C40G G69A C101U | -2.3 |
| C8U G35A | -3.11 |
| C8U A46C G63U U106C | -1.81 |
| U9A A84U U92A U116G U132C | -4.07 |
| C8U U78C U92G C115A A119U | -0.985 |
| U9C C40G U55A C76A C88G | -4.6 |
| U9A G19U G42A A46G U78C | -4.66 |

| Variant | polymerase ribozyme fitness (log ratio) |
| --- | --- |
| U9G C20A U54C C76U G128C | -5.03 |
| U9A G42A C86U C104G G110U | -7.22 |
| U9C A16U G52U | -0.423 |
| U9A U116C | 0.0652 |
| U9A A26G G47A C49U C82G G107U | -6.22 |
| C8U C15G G63U U87A | -3.32 |
| C8U G61A A84C | 0.393 |
| U9G A26U G39U U78C C82G | -4.7 |
| U9C A41C C53G A68G C73U | -5.47 |
| C8U G61U C70G | -4.76 |
| C8U G39A C40A C62U G93U A111C | -0.367 |
| C8U A103U C115G | -5.83 |
| C8U G117U | -1.38 |
| C8U U14A A41C C64U G93U C115U U125G U132A U133G | -6.39 |
| C8U C22U C53U A100U | -5.15 |
| C8G U9G C70A | -1.19 |
| U9C C98G | -5.05 |
| C8G U32A A43U G47U G52C C86A U96A | -6.26 |
| C8U C115U G117A | -0.753 |
| C8U C11U A50U | -1.25 |
| U9C C80U A91G | -0.111 |

| Variant | polymerase ribozyme fitness (log ratio) |
| --- | --- |
| U9C G10C G17A G63A U81C U92A C94U U109G A119G | -7.69 |
| U9A C72A A83U U129A | -0.91 |
| C8U G69A | -1.72 |
| C8U G69U | 0.891 |
| U9A C20U G71U A91C G107A G117A | -6.01 |
| U9A G71U C104U | 0.24 |
| C8U U21A G69C U106C U112A | -0.365 |
| U9A U78C C86A A121C | 2.18 |
| U9C G69A G77A | -2.73 |
| U9A C49A C56U C73A | -0.459 |
| U9A C12U A27C C53U G63A A83C | -4.89 |
| U9C C53G A105U | -1.72 |
| C8U G17C G36C | -4.86 |
| C8U C56U U96C | 0.0221 |
| C8U G44A G60A A121C G122U | -1.04 |
| U9A G47U G63C U130C | 0.0031 |
| C8U C56A U81G G120C | 0.594 |
| U9A G63U U78A G93C C124G G128C | -3.75 |
| C8U A46U C70U G122U | -0.612 |
| C8U C20U U78C C82G C123U | 0.246 |
| U9C A41C A91C | -1.02 |
